Measured values from US11685791B2, “Antibody binding specifically to N-terminal region of lysyl-tRNA synthetase exposed on cell membrane” (Zymedi Co., Ltd., priority 2017, dated 2023).

What was measured:
[1] = target: T1, extracellularly exposed KRS N-terminal region (Homo sapiens, UniProt Q15046); assay: Immunofluorescence staining of converted IgGs; type: cell-based; conditions: WT-KRS membrane localization induced by laminin treatment
T1 construct: expressed in transfected cells; host or cells: A549
T1 sequence (Q15046 whole entry): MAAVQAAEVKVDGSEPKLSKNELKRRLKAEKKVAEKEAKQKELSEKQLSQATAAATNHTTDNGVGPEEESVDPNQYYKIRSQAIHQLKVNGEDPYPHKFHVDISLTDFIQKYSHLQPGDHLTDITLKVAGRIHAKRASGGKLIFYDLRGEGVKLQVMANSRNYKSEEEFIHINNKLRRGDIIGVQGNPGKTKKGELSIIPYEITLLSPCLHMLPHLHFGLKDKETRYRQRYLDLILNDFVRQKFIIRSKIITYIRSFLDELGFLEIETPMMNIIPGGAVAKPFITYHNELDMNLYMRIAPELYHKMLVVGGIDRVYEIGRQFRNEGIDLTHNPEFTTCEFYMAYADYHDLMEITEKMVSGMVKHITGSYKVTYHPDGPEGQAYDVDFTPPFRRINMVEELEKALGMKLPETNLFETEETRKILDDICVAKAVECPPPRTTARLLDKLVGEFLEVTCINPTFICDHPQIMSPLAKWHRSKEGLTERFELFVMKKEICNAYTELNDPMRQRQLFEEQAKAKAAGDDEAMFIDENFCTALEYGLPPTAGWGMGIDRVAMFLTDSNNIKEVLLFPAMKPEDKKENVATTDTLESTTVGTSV
Method: (§1) Immunofluorescence was performed to investigate whether the scFv clones selected in Example <1-5> actually bound to the KRS N-terminal region exposed on the cell membrane. In order to make a phenomenon in which KRS is exposed on the membrane, KRS-T52D mutant (active mutant) was used. […] After incubation for 24 h, the cells were incubated using serum-free media (RPMI 1640 media) at 37° C. for 1 h. Thereafter, the cells were treated with 10 μg/ml laminin (L2020; Sigma) and then incubated at 37° C. for 1 h.
(§2) The prepared samples were washed with PBS (4° C.), fixed by the treatment with 4% paraformaldehyde for 10 min, and then washed. The samples were blocked with CAS block for 10 min, and treated with the scFv and Myc antibodies for 2 h. Thereafter, the unbound antibodies were washed out, and incubated with secondary antibodies for 1 h in a dark room. DAPI staining was performed for 10 min before mounting.
(§3) To investigate whether the IgGs constructed in the present invention actually bound to the region of KRS exposed on the cell membrane, immunofluorescence was performed. Immunofluorescence staining was performed by the same method as described in Example <1-6> by using N3 IgG and N5 IgG as representatives.

[2] = target: T2, extracellularly exposed KRS N-terminal region (Homo sapiens, UniProt Q15046, T52D); assay: Immunofluorescence staining of converted IgGs; type: cell-based; conditions: T52D-KRS (active mutant, myc tagged KRS)
T2 construct: expressed in transfected cells; host or cells: A549
T2 sequence (Q15046 whole entry T52D): as the sequence (Q15046 whole entry) above, with T52D counted along it
Method: as §1, §2, §3

A549 cells [3] = assay: MTT cytotoxicity assay; type: cell-based, human; conditions: 0, 50, 100, 500 nM, 24 h, serum-free media
Method: MTT assay was performed on N3 IgG as a representative. A549 cells were seeded in 96-well plates (5,000 cell/well) and incubated. The cells were washed with serum-free media, and then treated with human mock IgG and N3 IgG of 0, 50, 100, 500 nM (in serum-free media). After 24-h incubation, MTT solution was added with 50 μg/well, followed by incubation for 4 h. After MTT solution was removed, the wells were treated with 100 ul of DMSO, and then the absorbance was measured at 570 nm.

A549 cells [4] = assay: Transwell cell migration assay (laminin); type: cell-based, human; conditions: 100 nM or 500 nM, 24 h, laminin-coated Transwell
Method: Cell migration was measured using a 24-well Transwell chamber with polycarbonate membrane (8.0 μm pore size, Costar) as disclosed in the prior art (Park, S. G. et al., Human lysyl-tRNA synthetase is secreted to trigger pro-inflammatory response, Proc. Natl. Acad. Sci. USA 102, 6356-6361 (2005)). In the Transwell chamber, the lower well was coated with 10 μg of laminin (in gelatin) and dried with UV. Thereafter, A549 cells were suspended in serum-free RPIM media, and then placed at a concentration of 1×10^5 cells per well in the upper chamber. The chamber was treated with N3 IgG or human mock IgG (control) at 100 nM or 500 nM, followed by incubation for 24 h. Thereafter, the chamber was washed twice with PBS, and treated with 70% MeOH (in PBS) for 30 min. The chamber was again washed twice with PBS, and treated with Hematoxylin solution for 30 min. The chamber was washed three times with DW, and the membrane in the chamber was cut and mounted on the slide glass.

RAW 264.7 cells = assay: Transwell migration assay of monocytes/macrophages with laminin 421; type: cell-based; conditions: 100 nM, 24 h, laminin 421 1 μg/ml
Method: The effect on immune cell migration and invasion was investigated using N3 IgG antibody as a representative among the antibodies constructed in Example 1 above. Specific experimental methods were as follows. Transwell (Corning, #3421-5 mm) was coated with gelatin (0.5 mg/ml), and then RAW 264.7 cells (1×10^5 cells/well) were seeded in the top chamber. Serum-free DMEM (500 μl) containing laminin 421 (1 μg/ml) was placed in the bottom chamber. The top chamber was treated with each antibody at 100 nM. After 24 h, immobilization with 70% methanol was carried out for 30 min, and then staining with 50% hematoxylin was carried out for 30 min. The non-migrating cells present on the upper part of the membrane were removed by cotton swabs, and then the membrane was taken and mounted on the slide. The migrating cells present on the bottom surface of the membrane were observed by a high-resolution microscope (FIG. 20A), and the cells were counted on the obtained images and plotted on the graph (FIG. 20B).

[5] = tested on: monocyte/macrophage infiltration into lung tissues (CD68); assay: IHC staining of CD68 in lung tissues of PAH model; type: in vivo, rat; conditions: PAH rats, 1 mpk or 10 mpk, 3 weeks
Method: The collected lungs were fixed in paraformaldehyde (PFA) according to the ordinary procedure, and then paraffin-infiltrated and embedded through washing, dehydration, and clearing. The rat lung tissue paraffin blocks were micro-sectioned to a thickness of 6 μm, and slides were manufactured. Thereafter, staining was performed as below. The sample was first treated with xylene for 5 min three times, treated with 100% ethanol, 95% ethanol, 90% ethanol, and 70% ethanol, and DW in that order for 2 min, and washed with PBS for 5 min. After 0.3% H2O2 treatment, the sample was washed with PBS for 5 min twice. The sample was immersed in 0.01 M citrate buffer, heated, and washed with PBS-T (0.03% Tween 20). Thereafter, the sample was blocked (2% BSA & 2% goat serum in PBS) at room temperature for 30 min. The sample was stained with anti-CD68 antibody (1:200, ED1 clone, Abcam) at 4° C. overnight. The sample was washed with PBS-T for 5 min three times, and then treated with polymer-HRP anti-mouse envision kit (DAKO) at 4° C. for 1 h. The sample was washed with PBS-T three times, and then color-developed by the treatment with DAB substrate buffer and DAB chromogen 20. The stained tissue was treated with Mayer's hematoxylin (Sigma) for 1 min, and then treated with 70% ethanol, 90% ethanol, 95% ethanol, and 100% ethanol in that order for 2 min each twice. […]

binding to extracellularly exposed KRS N-terminal region (immunofluorescence) [1]: favorably bound specifically
binding to extracellularly exposed KRS N-terminal region (immunofluorescence) [2]: favorably bound
B1: N3 IgG: IgG converted from N3 scFv; VH SEQ ID NO: 49, VL SEQ ID NO: 51; binds KRS N-terminal region (antibody, V domains shown)
VH: EVQLLESGGGLVQPGGSLRLSCAASGFTFSSYDMSWVRQAPGKGLEWVSAISYDNGNTYYADSVKGRFTISRDNSKNTLYLQMNSLRAEDTAVYYSARMALDFDYWGQGTLVTVSS
VL: QSVLTQPPSASGTPGQRVTISCTGSSSNIGSNYVTWYQQLPGTAPKLLIYDNSNRPSGVPDRFSGSKSGTSASLAISGLRSEDEADYYCASWDDSLSAYVFGGGTKLTVL
cytotoxicity (MTT assay) (A549 cells [3]): no cytotoxicity
inhibition of cell migration (A549 cells [4]): significantly inhibited
inhibition of LN421-dependent monocyte/macrophage migration (RAW 264.7 cells): effectively inhibited
monocyte/macrophage infiltration into lung tissues (CD68 IHC) [5]: explicitly reduced
